According to the supplement of paper PMC9732359:
± gives the uncertainty stated by the source.

Experiment: protein stability index of a GFP-peptide fusion (yeast GPS) (PSI 1-4); higher = more stable; sorted into four equal gates, so the index is relative within each strain
Summary of the method: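 Plasmids isolated from each sorting gate were PCR-amplified and Illumina-sequenced, and barcodes assigned the reads to strains. The gates, four of equal size, were set by GFP/Cherry fluorescence ratio on mid-log cultures in leucine-free medium. These cultures were yeast carrying a pooled library of tiled 17-residue yeast protein peptides fused downstream of GFP on a plasmid that also expresses Cherry. The protein stability index is the sum of every gate's read frequency times its gate number.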

| Sequence | protein stability index (doa10∆) | protein stability index (pdr5∆) | protein stability index (san1∆) | protein stability index (ubr1∆) |
| --- | --- | --- | --- | --- |
| MVVQNSPVSSVHTANFS [MED2] | 2.12 ± 0.1 | 2.67 ± 0.075 | 2.01 ± 0.099 | 2.75 ± 0.054 |
| TRASKVLEQLSGQTPVQ [RPL11A] |  | 3.01 ± 0.12 | 2.84 ± 0.074 | 3.06 ± 0.077 |
| SSIHAIGSIKEDYLGAI [RPB7] | 2.61 ± 0.076 | 2.74 ± 0.064 | 2.71 ± 0.067 | 3.01 ± 0.095 |
| PLLAQLFKTLFKKLTKD [RPB2] | 2.65 ± 0.04 | 1.29 ± 0.039 | 1.18 ± 0.092 | 1.16 ± 0.03 |
| KVKNFGVWVRYDSRSGT [RPL20A] |  | 2.74 ± 0.1 |  | 2.55 ± 0.24 |
| QAAAKPSLEKSSFTFGS [YLR335W/NUP2] | 3.04 ± 0.1 | 2.97 ± 0.1 | 2.97 ± 0.18 | 2.73 ± 0.075 |
| TISSADFIQNVGRLWDQ [ECM29] | 2.98 ± 0.15 | 3.5 ± 0.14 | 3.39 ± 0.083 | 3.42 ± 0.061 |
| NSTTSGGLFGNKVGSTG [YGR119C/NUP57] | 3.17 ± 0.13 | 3.47 ± 0.19 | 3.21 ± 0.071 | 3.29 ± 0.17 |
| FHFAIEQISNNSNQQQN [SIN4] | 2.93 ± 0.061 | 2.53 ± 0.044 | 2.74 ± 0.066 | 2.9 ± 0.049 |
| AELELVDSLDPFSEGVT [SMC4] | 2.84 ± 0.072 | 2.64 ± 0.061 | 2.75 ± 0.12 | 3.11 ± 0.054 |
| INHEDGFIETTELLNIY [RPN3] | 2.97 ± 0.079 | 2.93 ± 0.1 | 3.09 ± 0.072 | 3.19 ± 0.066 |
| LFKPLNKTLTLDLKECY [ARP7] | 2.4 ± 0.067 | 2.14 ± 0.068 | 1.89 ± 0.15 | 2.27 ± 0.12 |
| MKTVQSPMGAQPSYNSA [GAL11] | 3.37 ± 0.26 | 2.91 ± 0.1 | 2.56 ± 0.21 | 2.65 ± 0.081 |
| ITIQDLLFPKSTIVNLA [DPB4] | 2.45 ± 0.066 | 2.71 ± 0.11 | 2.51 ± 0.069 | 2.59 ± 0.083 |
| QDPIFGSVLLTLLNFVS [ECM29] | 1.63 ± 0.049 | 1.42 ± 0.052 | 1.5 ± 0.098 | 1.41 ± 0.063 |
| IRRAYLHYIPKYNRYEK [RPS11A] | 2.04 ± 0.07 | 1.72 ± 0.064 | 1.81 ± 0.1 | 1.85 ± 0.044 |
| PFNFTVTLFQMAILLLY [CDC53] | 1.65 ± 0.045 | 1.59 ± 0.045 | 1.41 ± 0.11 | 1.63 ± 0.039 |
| ARFRSIHILKVAEIEKT [RPL20A] | 1.2 ± 0.067 | 1.16 ± 0.051 | 1.14 ± 0.088 | 1.08 ± 0.048 |
| TIVSNVEEKPGDRGALA [RPL2A] | 3.16 ± 0.095 | 3.1 ± 0.075 | 3.37 ± 0.058 | 3.4 ± 0.12 |
| HEILSEPAIEEENGDSI [MED1] | 2.98 ± 0.17 | 3.11 ± 0.12 | 2.99 ± 0.19 | 3.26 ± 0.14 |
| AKAKAVTSKVRNAEFKV [YMR153W/NUP53] | 1.38 ± 0.15 | 1.67 ± 0.13 |  | 1.3 ± 0.13 |
| SSRPNVNTTRRFQYSDD [YMR129W/POM152] | 2.93 ± 0.14 | 3.16 ± 0.11 | 2.4 ± 0.16 | 2.69 ± 0.088 |
| EENPIMQTALRRLPEDE [QCR7] | 3.45 ± 0.28 | 3.52 ± 0.28 |  | 3.39 ± 0.18 |
| ITLALSSNPNSSLHSPT [SRB4] | 2.9 ± 0.067 | 2.99 ± 0.055 | 2.91 ± 0.047 | 3.05 ± 0.044 |

| Sequence | protein stability index (doa10∆) | protein stability index (pdr5∆) | protein stability index (san1∆) | protein stability index (ubr1∆) |
| --- | --- | --- | --- | --- |
| ETVAKSKNAERKWAARA [RPS8A] | 3.184 ± 0.028 | 3.362 ± 0.027 | 3.196 ± 0.018 | 3.315 ± 0.021 |
| LEDKLRAVLTPLITRHC [RRP46] | 2.53 ± 0.059 | 2.2 ± 0.05 | 2.33 ± 0.064 | 2.44 ± 0.035 |
| QMIDTSILPTRDDLFVR [NUT1] | 2.86 ± 0.06 | 2.88 ± 0.062 | 2.73 ± 0.08 | 2.33 ± 0.044 |
| PQLTFTHVANFMNDAAA [YML103C/NUP188] | 3.04 ± 0.094 | 3 ± 0.082 | 2.7 ± 0.068 | 2.95 ± 0.05 |
| PAPSKPVIDYELKEITS [BRR2] | 3.15 ± 0.079 | 3.2 ± 0.081 | 2.97 ± 0.068 | 3.1 ± 0.07 |
| DHRKRKKSKIQLLDIAE [LIN1] |  | 2.8 ± 0.23 | 3.19 ± 0.17 | 3.32 ± 0.18 |
| MEGQKLDDPVLNAIVSK [YJR042W/NUP85] | 3.27 ± 0.19 | 3.2 ± 0.2 |  | 3.21 ± 0.17 |
| QNSDASTLEPTLRKELE [YIL149C/MLP2] | 2.59 ± 0.09 | 1.68 ± 0.091 | 2.55 ± 0.069 | 3.12 ± 0.077 |
| VRKYDLNICRQCFREKA [RPS29B] | 2.12 ± 0.22 | 2.67 ± 0.092 | 2.02 ± 0.19 | 2.49 ± 0.11 |
| TGLVSIRGKILTGTVVS [RPS11A] | 2.45 ± 0.052 | 2.75 ± 0.053 | 2.58 ± 0.053 | 2.89 ± 0.038 |
| TEISPMAGSQFENGNIT [RRP45] | 2.6 ± 0.063 | 2.5 ± 0.05 | 2.86 ± 0.058 | 2.71 ± 0.062 |
| KKMGVPYAIVKGKARLG [RPL8A] | 1.87 ± 0.17 | 2.09 ± 0.16 | 2.12 ± 0.17 |  |
| NPHQDLQAQDRAHRIGQ [SNF2] | 3.03 ± 0.077 | 3.04 ± 0.074 | 2.9 ± 0.07 | 3.19 ± 0.053 |
| YAQRIGSGAPVYLTAVL [HTA1] | 2.35 ± 0.058 | 2.48 ± 0.072 | 2.53 ± 0.097 | 2.35 ± 0.051 |
| EINTALNTLLVTSADSN [SWI1] | 2.05 ± 0.065 | 2.16 ± 0.048 | 2.38 ± 0.064 | 1.74 ± 0.065 |
| QNNSKHTEDTVNESRNS [SRB5] |  | 2.73 ± 0.1 | 2.95 ± 0.09 | 2.98 ± 0.11 |
| MSPLECRNILGVTSLIK [RPP1] | 2.23 ± 0.052 | 1.96 ± 0.054 | 1.84 ± 0.079 | 2.08 ± 0.044 |
| IIVAGYDDKNKGEVYTI [PRE3] | 3 ± 0.083 | 3.12 ± 0.096 | 3.42 ± 0.089 | 3.45 ± 0.098 |
| TSSTPSPIKNGSCTRQL [YOR098C/NUP1] | 3.26 ± 0.064 | 3.02 ± 0.045 | 2.68 ± 0.046 | 3.09 ± 0.049 |
| NSFTKGNVFSPIDNNII [SNU114] | 2.98 ± 0.093 | 2.92 ± 0.074 | 2.83 ± 0.081 | 2.95 ± 0.058 |
| ANTPSIPTNPVDNENNK [SWI3] | 2.62 ± 0.08 | 2.8 ± 0.068 | 2.68 ± 0.053 | 3.08 ± 0.071 |
| RKSDQQDVLKGSSASSR [POP1] | 3.29 ± 0.12 | 3.06 ± 0.1 | 3.14 ± 0.071 | 3.31 ± 0.096 |
| QHLQFNGSSDASSLRFG [YDL088C/ASM4] | 2.24 ± 0.055 | 2.3 ± 0.049 | 1.99 ± 0.076 | 1.83 ± 0.038 |
| NHKSKDNNNGDDDDEDD [SKP1] | 3.13 ± 0.075 | 3.14 ± 0.069 | 3.16 ± 0.05 | 3.14 ± 0.049 |
